Laboratory results as given in patent US20240239860A1 (University of Pennsylvania, published 2024).

Target: T1, dipeptidyl peptidase 4 (DPP-4) (UniProt P27487 39-766, limits assumed)
T1 construct: also called adenosine deaminase complexing protein 2; CD26
Assay: inhibition of DPP-4 cleavage of the chromogenic substrate Gly-Pro-pNA

T1 sequence (P27487 39-766 limits assumed): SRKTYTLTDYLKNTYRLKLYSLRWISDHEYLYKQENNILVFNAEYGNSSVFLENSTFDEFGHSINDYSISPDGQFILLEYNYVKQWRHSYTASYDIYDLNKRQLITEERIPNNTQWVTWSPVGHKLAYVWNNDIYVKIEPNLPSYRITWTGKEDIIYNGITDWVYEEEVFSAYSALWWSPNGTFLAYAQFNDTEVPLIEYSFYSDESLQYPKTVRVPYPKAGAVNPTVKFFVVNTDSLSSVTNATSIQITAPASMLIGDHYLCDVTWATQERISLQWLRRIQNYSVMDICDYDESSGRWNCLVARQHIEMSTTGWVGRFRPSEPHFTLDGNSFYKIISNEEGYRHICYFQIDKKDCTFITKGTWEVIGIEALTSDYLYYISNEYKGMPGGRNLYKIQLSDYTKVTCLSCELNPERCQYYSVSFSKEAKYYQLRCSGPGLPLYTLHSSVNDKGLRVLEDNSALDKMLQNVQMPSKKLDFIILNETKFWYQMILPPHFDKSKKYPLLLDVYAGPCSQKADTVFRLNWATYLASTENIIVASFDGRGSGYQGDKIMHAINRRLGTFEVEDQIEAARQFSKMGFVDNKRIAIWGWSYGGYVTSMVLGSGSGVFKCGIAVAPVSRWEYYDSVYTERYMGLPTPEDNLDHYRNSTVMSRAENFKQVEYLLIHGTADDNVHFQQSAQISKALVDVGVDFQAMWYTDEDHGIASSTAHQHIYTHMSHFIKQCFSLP

B1: thio GLP-1 (GLP-1 7-36 with a thioamide at the Ala8-Glu9 scissile bond) (peptide)
peptide: HXEGTFTSDVSSYLEGQAAKEFIAWLVKGR
modifications: thioamide (C=S in place of C=O) at Ala8 (second residue of the peptide), i.e. the bond between Ala8 and Glu9; printed HA*EGTF...
notes: C-terminal amide is called optional; also called GLP-1-A^s8; thioamide-modified GLP-1
binding result: no binding (tested: 100 µM)
